Experimental data from patent US20230193285, “BISPECIFIC PERSONALIZED APTAMERS” (Aummune Ltd., published 2023).

Experiments:
[1] = molecular target: T1, Notch2 (Homo sapiens, UniProt Q04721 Q04721:26-1677); assay: thermofluorimetric analysis with SYBR green; dose-dependent, saturates between 100-200 nM protein; conditions: tags: Fc fusion, R&D Systems
Protocol: (§1) TFA was used to determine the binding of CTL3 with its putative target Notch2.100 nM CTL3, 1 uM SYBR green I (sigma), Fc-Notch2 human (R&D Systems) or Fc-CD160 (abcam) at 20, 40, 80, 160, and 320 nM were mixed together and SYBR green and fluorescence was measured from Temp=25° C. to Temp=95° C. at 1 degree/min using RT-PCR, in triplicates. The subsequent experiment was done with 50 nM of either CTL3 (SEQ ID NO: 3), scrambled-CTL3-A (SEQ ID NO: 86), or scrambled-CTL3-B (SEQ ID NO: 87); 1 µM SYBR green I (sigma); Fc-Notch2 human (R&D Systems), Fc-Notch2 mouse (R&D Systems) or Fc-Notch2 rat at 25, 50, 100 and 200 nM similar to the former experiment.
(§2) A Tₘ melting curve profile was generated by measuring SYBR green fluorescence during temperature gradient, to monitor aptamer-protein complexes in the presence of different concentrations of either Notch2 or the non-specific control (CD 160 protein). Only upon the addition of increasing concentrations of Notch2, and not CD160, a dose-dependent change in CTL3-associated fluorescence was measured (FIG. 19). When looking at the total fluorescence graph, high fluorescence intensity can be seen at 25° C., however, when examining the derivative rate of change of […] (dF/dT) curves, the temperature-dependent intensity reached a maximum at 37° C.

[2] = molecular target: T2, CD160 (UniProt O95971 O95971:25-159); assay: thermofluorimetric analysis; specificity control; conditions: tags: Fc fusion, abcam
T2 sequence: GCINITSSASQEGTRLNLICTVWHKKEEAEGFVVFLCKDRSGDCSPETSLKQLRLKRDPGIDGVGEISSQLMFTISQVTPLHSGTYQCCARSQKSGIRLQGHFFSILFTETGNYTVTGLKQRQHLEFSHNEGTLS
Protocol: as §1, §2

[3] = molecular target: T3, CD3 epsilon (Homo sapiens, UniProt P07766 P07766:23-126); assay: HPLC size exclusion; negative control sequence; conditions: tags: Fc chimera His tag, Abcam ab220590; label: Cy5
T3 sequence (P07766 23-126, one chain of several): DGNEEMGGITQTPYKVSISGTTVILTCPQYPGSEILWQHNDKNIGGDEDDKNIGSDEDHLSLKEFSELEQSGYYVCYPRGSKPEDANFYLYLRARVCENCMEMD
Protocol: Top five candidates (CS6, CS7, CS8, CS9, and CS8c; SEQ ID NOs: 88-92, respectively) were synthesized with a 5(5′) phosphothioated CpG motif and assayed for Human CD3ε (hCD3ε) binding via the HPLC size exclusion column. In this method, the aptamers were labelled with Cy5 complementary sequence to the CpG site (Cy5-CpG’). Then, the folded-labelled candidates are incubated, each, with the CD3ε- recombinant protein or with negative control IgG1 (1 hr at 37℃ and 4℃) and analyzed by HPLC ProSEC 300S size exclusion column (Agilent) at 570 nm absorption. Upon protein binding, the aptamer-protein complex has a greater mass than a free aptamer and as a result, the retention time (RT) at the column is expected to be shorter. Inversely, in the case of non-binding aptamer, the RT in the presence of protein will be the same as in the absence of the protein. As a control, PolyT sequence was used.

[4] = molecular target: T1, Notch2; assay: thermofluorimetric analysis; conditions: tags: Fc fusion, R&D Systems
Protocol: as §1

[5] = molecular target: CD3 epsilon (Jurkat T cells) (Homo sapiens, UniProt P07766 P07766:23-207); assay: flow; binding to Jurkat cells, 1 h 37 C, PBS 1 mM MgCl2, BSA, tRNA; conditions: tags: native on Jurkat cells ATCC TIB-152; label: Cy5-CpG' complementary strand
CD3 epsilon (Jurkat T cells), sequence (P07766 23-207, one chain of several): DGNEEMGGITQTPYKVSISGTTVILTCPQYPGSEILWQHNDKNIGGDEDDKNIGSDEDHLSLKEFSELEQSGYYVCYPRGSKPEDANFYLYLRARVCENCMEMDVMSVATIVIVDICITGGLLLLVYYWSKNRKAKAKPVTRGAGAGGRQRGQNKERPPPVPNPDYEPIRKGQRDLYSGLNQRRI
Protocol: 5 x10⁴ Jurkat cells were washed and re-suspended in x1 folding buffer that contain 0.1% BSA and 0.01% tRNA. 0.1-80 nM of CS6 aptamer were labelled with CpG′-Cy5 tag (1:1 ratio) and folded (95℃ 5 min, ice 10 min, and maintenance at 4℃). Next, the DNA aptamers were mixed with the cells and incubated for 1 hr at 37℃ in V shape 96 well plate under gentle shaking conditions. After incubation, the cells were washed twice with folding buffer X1 and analysed via flow cytometry (CytoFlex).
Subsequently CS6 effective concentration 50 (EC₅₀) was evaluated. A serial dilution of -Cy5 labelled aptamer was incubated with Jurkat cells for 1 hr at 37℃ and assessed for binding via flow cytometry (FIG. 27).

[6] = molecular target: T3, CD3 epsilon; assay: SPR; conditions: tags: Fc chimera His tag, Abcam ab220590

T1 sequence (Q04721 26-1677, one chain of several): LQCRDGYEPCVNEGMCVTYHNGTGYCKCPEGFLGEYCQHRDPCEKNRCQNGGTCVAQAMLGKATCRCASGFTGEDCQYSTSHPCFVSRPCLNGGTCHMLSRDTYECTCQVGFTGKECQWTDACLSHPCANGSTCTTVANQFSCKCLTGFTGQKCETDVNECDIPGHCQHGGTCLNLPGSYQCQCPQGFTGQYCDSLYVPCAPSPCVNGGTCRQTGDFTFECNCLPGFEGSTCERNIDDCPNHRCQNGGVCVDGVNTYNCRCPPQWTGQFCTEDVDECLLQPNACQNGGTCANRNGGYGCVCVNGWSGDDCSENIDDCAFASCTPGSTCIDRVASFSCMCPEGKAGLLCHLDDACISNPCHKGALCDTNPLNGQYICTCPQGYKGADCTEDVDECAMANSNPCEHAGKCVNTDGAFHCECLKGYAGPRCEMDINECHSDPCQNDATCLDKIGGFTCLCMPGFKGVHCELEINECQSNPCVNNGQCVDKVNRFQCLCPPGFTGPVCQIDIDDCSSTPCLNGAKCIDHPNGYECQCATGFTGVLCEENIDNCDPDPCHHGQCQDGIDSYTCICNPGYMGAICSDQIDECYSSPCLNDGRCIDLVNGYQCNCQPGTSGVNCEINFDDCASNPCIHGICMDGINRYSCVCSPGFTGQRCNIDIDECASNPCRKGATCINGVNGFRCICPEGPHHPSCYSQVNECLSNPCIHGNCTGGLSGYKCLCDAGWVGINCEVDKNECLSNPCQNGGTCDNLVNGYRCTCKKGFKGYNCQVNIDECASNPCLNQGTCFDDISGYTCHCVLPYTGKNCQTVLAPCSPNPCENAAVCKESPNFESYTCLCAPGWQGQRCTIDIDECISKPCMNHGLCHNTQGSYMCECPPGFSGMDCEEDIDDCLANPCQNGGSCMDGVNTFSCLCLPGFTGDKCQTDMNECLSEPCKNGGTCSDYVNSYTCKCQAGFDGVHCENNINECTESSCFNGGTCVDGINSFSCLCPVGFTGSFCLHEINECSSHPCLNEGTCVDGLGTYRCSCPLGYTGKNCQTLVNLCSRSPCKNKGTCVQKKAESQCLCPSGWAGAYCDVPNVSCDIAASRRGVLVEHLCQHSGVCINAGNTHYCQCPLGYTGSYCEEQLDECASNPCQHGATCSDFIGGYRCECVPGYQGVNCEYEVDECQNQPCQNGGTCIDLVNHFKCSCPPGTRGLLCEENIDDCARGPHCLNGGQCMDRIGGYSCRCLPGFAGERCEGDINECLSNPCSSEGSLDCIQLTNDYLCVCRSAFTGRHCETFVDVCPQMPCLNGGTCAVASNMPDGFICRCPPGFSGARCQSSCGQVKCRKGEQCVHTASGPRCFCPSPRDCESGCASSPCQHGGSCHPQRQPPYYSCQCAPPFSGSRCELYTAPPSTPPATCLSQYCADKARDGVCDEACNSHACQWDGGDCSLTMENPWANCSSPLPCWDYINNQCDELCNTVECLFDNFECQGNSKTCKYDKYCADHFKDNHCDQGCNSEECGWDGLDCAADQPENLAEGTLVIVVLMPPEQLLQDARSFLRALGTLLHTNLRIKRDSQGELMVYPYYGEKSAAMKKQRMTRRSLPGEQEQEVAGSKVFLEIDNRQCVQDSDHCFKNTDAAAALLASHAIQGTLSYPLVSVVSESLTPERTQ

GCATACCTTTCGTATGCCTTTTTGACCCGTATTTTTGCCCTACCCTTCGG (ssDNA) [CTL3]
binding result [1]: binds | binding result [2]: no binding

B1: PolyT control (ssDNA)
DNA: TCGTCGTCGCGGTTCGCGTCCGTTTTTTTTTTTTTTTTTTTTTTTTTTTTTTTTTTTTTTTTTTTTTTTTTTT
binding result [3]: no binding

TCTTTCGTTAGCGCTTCTCTCTTGCGATTCCGACCGCATATTCACGTCTT (ssDNA) [Scrambled-CTL3-B]
binding result [4]: no binding

GTTCTTATAATCGCCTCTGCGCTATGTTCTTGCTCGCCTTCCATATCGCT (ssDNA) [Scrambled-CTL3-A]
binding result [4]: no binding

B2: CpG1-CS6 (ssDNA)
DNA: TCGTCGTCGCGGTTCGCGTCCGTATCGTATAAGGGCTGCTTAGGATTGCGATAATACGGTCAA
modifications: PS on first five 5' nucleotides of CpG motif
EC50 [5]: 19.6 nM

ATCGTATAAGGGCTGCTTAGGATTGCGATAATACGGTCAA (ssDNA) [CS6]
Kd [6]: 31 nM
